These results are taken from article PMC1636458 (Nucleic Acids Research, 2006).

Like-named read-outs stand apart in the source and are kept apart here.

Data set [1] addresses T1, TBPm3 (altered specificity TATA-binding protein mutant) (UniProt P13393 1-240, I194F;V203T;L205V).
T1 sequence: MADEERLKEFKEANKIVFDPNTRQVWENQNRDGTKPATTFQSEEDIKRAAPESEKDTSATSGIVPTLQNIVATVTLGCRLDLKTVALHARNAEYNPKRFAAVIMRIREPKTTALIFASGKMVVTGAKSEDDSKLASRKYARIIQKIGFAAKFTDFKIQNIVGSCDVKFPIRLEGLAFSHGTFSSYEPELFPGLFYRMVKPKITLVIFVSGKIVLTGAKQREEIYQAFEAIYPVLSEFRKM
Put plainly: EMSA kinetics.

For data set [2], the target named is T1, TBPm3 (altered specificity TATA-binding …). The data set can be described thus: EMSA kinetics. This is another data set of the same source. In general terms: Mobility shift assays separate free from complexed probe on a gel.
Data set [3] shares this target. Put plainly: MPE-Fe.
Data set [4] has as its target T2, Brf1 (TFIIB-related factor, subunit of TFIIIB) (S. cerevisiae, UniProt P29056 1-596).
T2 sequence (looked up): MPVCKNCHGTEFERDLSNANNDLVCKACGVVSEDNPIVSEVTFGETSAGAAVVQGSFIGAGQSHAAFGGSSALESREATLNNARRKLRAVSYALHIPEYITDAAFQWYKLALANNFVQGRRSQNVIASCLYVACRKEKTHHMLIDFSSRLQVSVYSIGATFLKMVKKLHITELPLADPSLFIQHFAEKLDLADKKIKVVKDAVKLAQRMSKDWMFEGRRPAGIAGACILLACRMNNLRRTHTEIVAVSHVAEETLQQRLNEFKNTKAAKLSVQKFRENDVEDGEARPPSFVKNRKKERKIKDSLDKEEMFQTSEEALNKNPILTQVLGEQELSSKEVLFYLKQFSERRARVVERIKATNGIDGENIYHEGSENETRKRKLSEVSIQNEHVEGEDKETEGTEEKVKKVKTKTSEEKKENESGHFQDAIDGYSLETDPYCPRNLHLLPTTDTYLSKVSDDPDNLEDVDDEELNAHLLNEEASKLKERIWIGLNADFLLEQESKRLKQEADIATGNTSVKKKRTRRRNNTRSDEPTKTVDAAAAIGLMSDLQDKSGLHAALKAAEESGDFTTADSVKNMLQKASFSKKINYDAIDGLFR
The data set can be described thus: native gel or EMSA.

B1: TATA probe (U6 TATA box), 26 bp (dsDNA)
DNA 1: CGTGACTACTATAAATAGATGATCCG
DNA 2: CGGATCATCTATTTATAGTAGTCACG
In data set [1], B1 gave a Kd of 300 pM.

B2: TGTA probe, 26 bp (dsDNA)
DNA 1: CGTGACTACTGTAAATAGATGATCCG
DNA 2: CGGATCATCTATTTACAGTAGTCACG
In data set [2], B2 registered a dissociation constant (Kd) of 600 pM.

B3: 76 bp DNA with favored sequence TGTAAATTG (dsDNA)
DNA 1: CGCTGCAATCTCTTTTTCAATTGCTCCGGACTGTAAATTGGCGGTCCCTTACTCTTTCCTCAACAATTAACGGCCC
DNA 2: GGGCCGTTAATTGTTGAGGAAAGAGTAAGGGACCGCCAATTTACAGTCCGGAGCAATTGAAAAAGAGATTGCAGCG
Turning to B3, the binding result in data set [3] is recorded as “binds”.

B4: TBPm3 (altered specificity TATA-binding protein mutant) (natural protein, S. cerevisiae, UniProt P13393 1-240, looked up)
chain: T1 sequence
For the molecule B4, in data set [4], the binding result is given as “binds”.

The Kd is a measure of binding affinity in units of concentration. Low readings indicate higher affinity, high ones lower affinity.
